Laboratory results published in article doi:10.1101/2020.08.13.232140, “Assembly and symmetry of the fungal E3BP-containing core of the Pyruvate Dehydrogenase Complex” (bioRxiv, 2020).

Columns and labels:
[1] = target: the molecule itself; assay: cryo-EM structure; native PDC purified from N. crassa mitochondria; single-particle reconstructions under icosahedral and tetrahedral symmetry (classes X, Y, N)
[2] = target: the molecule itself; assay: cryo-EM structure; reconstituted tE2+PX30 subcomplex of separately expressed components; icosahedral (map R1) and tetrahedral (maps R2X/Y) reconstructions
[3] = target: the molecule itself; assay: cryo-EM structure; co-expressed tE2/PX261 subcomplex; reconstruction under icosahedral symmetry

B1: E2 of the native N. crassa pyruvate dehydrogenase complex (PDC core) (natural protein, UniProt P20285 29-458, looked up)
chain: ASYPPHTVVKMPALSPTMTSGGIGAWQKKPGDKIEPGEVLVEIETDKAQMDFEFQEEGVLAKILKDSGEKDVAVGNPIAILVEEGTDVNAFKDFTLKDAGGETSPAVPKDEPKNESTASAPTPAPTPAPEPENTSFTGRFQTALEREPNALPAAKRLAREKGIDLRNVKGSGPGGKITEEDVKKALASAPAAGAAAAAYTDVPISGMRKTIAARLKESVTENPHFFVSTNLSVSKLLKLRQALNSSADGRYKLSVNDFLIKAMGIASKRVPTVNSSWRDGVIRQFETVDVSVAVATPNGLITPIVKGVEGKGLESISAAVKELAKKARDGKLKPEEYQGGSISISNMGMNPAVQSFTAIINPPQAAILAVGAPQKVAVPVENEDGTTGVSWDEQIIVTASFDHKVVDGAVGAEWIRELKKVIENPLELLL
notes: E2 (acetyltransferase) component of the pyruvate dehydrogenase complex, Neurospora crassa, UniProt P20285; residues 232-458 identified in the native reconstruction; the recombinant E2 construct starts at residue 29; Strain WT STA74 / ATCC 14692; also called E2 core; source: endogenous, PDC purified from N. crassa mitochondria (sucrose cushion, sucrose gradient, SEC); copies: 60
- stoichiometry N [1]: 60

B2: N. crassa E2 core-forming domain (tE2), separately expressed (domain or fragment, UniProt P20285 225-458, looked up)
chain: AAYTDVPISGMRKTIAARLKESVTENPHFFVSTNLSVSKLLKLRQALNSSADGRYKLSVNDFLIKAMGIASKRVPTVNSSWRDGVIRQFETVDVSVAVATPNGLITPIVKGVEGKGLESISAAVKELAKKARDGKLKPEEYQGGSISISNMGMNPAVQSFTAIINPPQAAILAVGAPQKVAVPVENEDGTTGVSWDEQIIVTASFDHKVVDGAVGAEWIRELKKVIENPLELLL
notes: E2 of the pyruvate dehydrogenase complex, Neurospora crassa, residues 225-458 of UniProt P20285 (core-forming catalytic domain); model built for 227-458; pRSET vector; the His6-tag is cleavable with thrombin; Icosahedral assembly; source: E. coli Rosetta2 (DE3), single expression
- binding result [2]: binds

B3: untagged N. crassa E2 core-forming domain (tE2), co-expressed with PX constructs (domain or fragment, UniProt P20285 225-458, looked up)
chain: AAYTDVPISGMRKTIAARLKESVTENPHFFVSTNLSVSKLLKLRQALNSSADGRYKLSVNDFLIKAMGIASKRVPTVNSSWRDGVIRQFETVDVSVAVATPNGLITPIVKGVEGKGLESISAAVKELAKKARDGKLKPEEYQGGSISISNMGMNPAVQSFTAIINPPQAAILAVGAPQKVAVPVENEDGTTGVSWDEQIIVTASFDHKVVDGAVGAEWIRELKKVIENPLELLL
notes: E2 of the pyruvate dehydrogenase complex, Neurospora crassa, residues 225-458 of UniProt P20285 (core-forming catalytic domain); petDuet dual-expression vectors were built with the single-expression genes as template; PX stood in the His-tagged MCS1, tE2 untagged; also called untagged E2 core-forming domain; PDC core; source: E. coli Rosetta2 (DE3), co-expressed with His-tagged PX from petDuet, …
- binding result [3]: binds
